Laboratory results: the RNAGym collection of RNA variant scans (doi:10.7554/elife.80360)

B1: Hammerhead Ribozyme (parent)
chain: ACCGGAUGUGCUUUCCGGUCUGAUGAGUCCGUGAGGACGAAACAG

Variants of: B1
Assay: self-cleavage, relative activity (ratio to wild type); higher = more cleavage; co-transcriptional

Question: For ACCGUAUGUGCUUUCCGGUCGGAUGAGUCCGUGAGGACGAAACAG [G5U U21G], which self-cleavage is on record?
Answer: 0.419

Question: With ACCGUAUGUGCUUUCCGGUCAGAUGAGUCCGUGAGGACGAAACAG [G5U U21A] as the variant, how does the self-cleavage read?
Answer: 0.45

Question: Which self-cleavage does the source give for ACCGUAUGUGCUUUCCGGUCCGAUGAGUCCGUGAGGACGAAACAG [G5U U21C] here?
Answer: 0.668

Question: Which self-cleavage does the source give for ACCGUAUGUGCUUGCCGGUCUGAUGAGUCCGUGAGGACGAAACAG [G5U U14G] here?
Answer: 1.29

Question: With ACCGUAUGUGCUUACCGGUCUGAUGAGUCCGUGAGGACGAAACAG [G5U U14A] as the variant, how does the self-cleavage read?
Answer: 1.24

Question: For ACCGUAUGUGCUUCCCGGUCUGAUGAGUCCGUGAGGACGAAACAG [G5U U14C], which self-cleavage is on record?
Answer: 0.837

Question: With ACCGGCUGUGCUUUCCGGUCUGAUGAGUCCGUGAGGACGAAACAG [A6C] as the variant, how does the self-cleavage read?
Answer: 0.722

Question: Which self-cleavage does the source give for ACCGUAUGUGCUUUCCGGUCUGAUGAGCCCGUGAGGACGAAACAG [G5U U28C] here?
Answer: 0.458

Question: With ACCGUAUGUGCUUUCCGGUCUGAUGAGGCCGUGAGGACGAAACAG [G5U U28G] as the variant, how does the self-cleavage read?
Answer: 0.376

Question: Which self-cleavage does the source give for ACCGUAUGUGCUUUCCGGUCUGAUGAGACCGUGAGGACGAAACAG [G5U U28A] here?
Answer: 0.361

Question: With ACCGUAUGUGCUUUCCGGUCUGAUGAGUCCGCGAGGACGAAACAG [G5U U32C] as the variant, how does the self-cleavage read?
Answer: 0.822

Question: Which self-cleavage does the source give for ACCGUAUGUGCUUUCCGGUCUGAUGAGUCCGAGAGGACGAAACAG [G5U U32A] here?
Answer: 0.795

Question: For ACCGUAUGUGCUUUCCGGUCUGAUGAGUCCGGGAGGACGAAACAG [G5U U32G], which self-cleavage is on record?
Answer: 0.367

Question: For ACCGUAGGUGCUUUCCGGUCUGAUGAGUCCGUGAGGACGAAACAG [G5U U7G], which self-cleavage is on record?
Answer: 0.708

Question: With ACCGUAAGUGCUUUCCGGUCUGAUGAGUCCGUGAGGACGAAACAG [G5U U7A] as the variant, how does the self-cleavage read?
Answer: 0.87

Question: With ACCGUACGUGCUUUCCGGUCUGAUGAGUCCGUGAGGACGAAACAG [G5U U7C] as the variant, how does the self-cleavage read?
Answer: 0.716

Question: For ACCGUAUGUGCUUUCCGGUCUGAUGAGUCCGUGAGCACGAAACAG [G5U G36C], which self-cleavage is on record?
Answer: 0.32

Question: For ACCGUAUGUGCUUUCCGGUCUGAUGAGUCCGUGAGUACGAAACAG [G5U G36U], which self-cleavage is on record?
Answer: 0.327

Question: With ACCGUAUGUGCUUUCCGGUCUGAUGAGUCCGUGAGAACGAAACAG [G5U G36A] as the variant, how does the self-cleavage read?
Answer: 0.417

Question: With ACCGGCUGUGCUUUCCGGUCUGAUGAGUCCGUGAGGGCGAAACAG [A6C A37G] as the variant, how does the self-cleavage read?
Answer: 0.333

Question: With ACCGGCUGUGCUUUCCGGUCUGAUGAGUCCGUGAGGCCGAAACAG [A6C A37C] as the variant, how does the self-cleavage read?
Answer: 0.475

Question: With ACCGGCUGUGCUUUCCGGUCUGAUGAGUCCGUGAGGUCGAAACAG [A6C A37U] as the variant, how does the self-cleavage read?
Answer: 0.449

Question: For ACCGUAUGUGCUGUCCGGUCUGAUGAGUCCGUGAGGACGAAACAG [G5U U13G], which self-cleavage is on record?
Answer: 1.02

Question: With ACCGUAUGUGCUAUCCGGUCUGAUGAGUCCGUGAGGACGAAACAG [G5U U13A] as the variant, how does the self-cleavage read?
Answer: 1.37

Question: With ACCGUAUGUGCUCUCCGGUCUGAUGAGUCCGUGAGGACGAAACAG [G5U U13C] as the variant, how does the self-cleavage read?
Answer: 1.15

Question: With ACCGUAUGUGCUUUCCGUUCUGAUGAGUCCGUGAGGACGAAACAG [G5U G18U] as the variant, how does the self-cleavage read?
Answer: 0.343

Question: Which self-cleavage does the source give for ACCGUAUGUGCUUUCCGCUCUGAUGAGUCCGUGAGGACGAAACAG [G5U G18C] here?
Answer: 0.33

Question: With ACCGUAUGUGCUUUCCGAUCUGAUGAGUCCGUGAGGACGAAACAG [G5U G18A] as the variant, how does the self-cleavage read?
Answer: 0.334

Question: With ACCGUAUGUGCUUUCCGGUCUGAUGAGUCCGUGAGGACGAAAUAG [G5U C43U] as the variant, how does the self-cleavage read?
Answer: 0.371

Question: With ACCGUAUGUGCUUUCCGGUCUGAUGAGUCCGUGAGGACGAAAGAG [G5U C43G] as the variant, how does the self-cleavage read?
Answer: 0.335

Question: For ACCGUAUGUGCUUUCCGGUCUGAUGAGUCCGUGAGGACGAAAAAG [G5U C43A], which self-cleavage is on record?
Answer: 0.352

Question: For ACCGUAUGUGCUUUCCGGUCUGAUGAAUCCGUGAGGACGAAACAG [G5U G27A], which self-cleavage is on record?
Answer: 0.504

Question: With ACCGUAUGUGCUUUCCGGUCUGAUGACUCCGUGAGGACGAAACAG [G5U G27C] as the variant, how does the self-cleavage read?
Answer: 0.491

Question: Which self-cleavage does the source give for ACCGUAUGUGCUUUCCGGUCUGAUGAUUCCGUGAGGACGAAACAG [G5U G27U] here?
Answer: 0.366

Question: With ACCGGCUGUGCUUUCCGGUCUGAUGAGUCCGUGAGGACGCAACAG [A6C A40C] as the variant, how does the self-cleavage read?
Answer: 0.386

Question: For ACCGGCUGUGCUUUCCGGUCUGAUGAGUCCGUGAGGACGUAACAG [A6C A40U], which self-cleavage is on record?
Answer: 0.37

Question: Which self-cleavage does the source give for ACCGGCUGUGCUUUCCGGUCUGAUGAGUCCGUGAGGACGGAACAG [A6C A40G] here?
Answer: 0.38

Question: Which self-cleavage does the source give for ACCGUAUGUGCUUUCCGGUCUGAUGAGUCCGUGAGGAUGAAACAG [G5U C38U] here?
Answer: 0.498

Question: For ACCGUAUGUGCUUUCCGGUCUGAUGAGUCCGUGAGGAAGAAACAG [G5U C38A], which self-cleavage is on record?
Answer: 0.431

Question: Which self-cleavage does the source give for ACCGUAUGUGCUUUCCGGUCUGAUGAGUCCGUGAGGAGGAAACAG [G5U C38G] here?
Answer: 0.349

Question: Which self-cleavage does the source give for ACCGUAUGUGCUUUCCGGUCUGAUUAGUCCGUGAGGACGAAACAG [G5U G25U] here?
Answer: 0.355

Question: With ACCGUAUGUGCUUUCCGGUCUGAUAAGUCCGUGAGGACGAAACAG [G5U G25A] as the variant, how does the self-cleavage read?
Answer: 0.351

Question: With ACCGUAUGUGCUUUCCGGUCUGAUCAGUCCGUGAGGACGAAACAG [G5U G25C] as the variant, how does the self-cleavage read?
Answer: 0.301

Question: Which self-cleavage does the source give for ACCGUAUGUGUUUUCCGGUCUGAUGAGUCCGUGAGGACGAAACAG [G5U C11U] here?
Answer: 0.458

Question: With ACCGUAUGUGGUUUCCGGUCUGAUGAGUCCGUGAGGACGAAACAG [G5U C11G] as the variant, how does the self-cleavage read?
Answer: 0.815

Question: Which self-cleavage does the source give for ACCGUAUGUGCUUUCCGGUCUGAUGAGUCCUUGAGGACGAAACAG [G5U G31U] here?
Answer: 1.2

Question: With ACCGUAUGUGCUUUCCGGUCUGAUGAGUCCCUGAGGACGAAACAG [G5U G31C] as the variant, how does the self-cleavage read?
Answer: 1.03

Question: With ACCGUAUGUGCUUUCCGGUCUGAUGAGUCCAUGAGGACGAAACAG [G5U G31A] as the variant, how does the self-cleavage read?
Answer: 1.25

Question: For ACCGUAUGUCCUUUCCGGUCUGAUGAGUCCGUGAGGACGAAACAG [G5U G10C], which self-cleavage is on record?
Answer: 0.708

Question: With ACCGUAUGUUCUUUCCGGUCUGAUGAGUCCGUGAGGACGAAACAG [G5U G10U] as the variant, how does the self-cleavage read?
Answer: 1.15

Question: With ACCGUAUGUACUUUCCGGUCUGAUGAGUCCGUGAGGACGAAACAG [G5U G10A] as the variant, how does the self-cleavage read?
Answer: 1.29

Question: Which self-cleavage does the source give for ACCGUAUGUGCUUUCCGGUCUGAUGAGUCCGUGAGGACGAAACAU [G5U G45U] here?
Answer: 0.529

Question: For ACCGUAUGUGCUUUCCGGUCUGAUGAGUCCGUGAGGACGAAACAA [G5U G45A], which self-cleavage is on record?
Answer: 0.431

Question: Which self-cleavage does the source give for ACCGUAUGUGCUUUCCGGUCUGAUGAGUCCGUGAGGACGAAACAC [G5U G45C] here?
Answer: 0.443

Question: With ACCGUAUGUGCUUUCCGGUCUGAGGAGUCCGUGAGGACGAAACAG [G5U U24G] as the variant, how does the self-cleavage read?
Answer: 0.636

Question: For ACCGUAUGUGCUUUCCGGUCUGACGAGUCCGUGAGGACGAAACAG [G5U U24C], which self-cleavage is on record?
Answer: 0.922

Question: For ACCGUAUGUGCUUUCCGGUCUGAAGAGUCCGUGAGGACGAAACAG [G5U U24A], which self-cleavage is on record?
Answer: 0.809
